Values quoted from earlier work in article PMC9960319.
pKd: −log10 of the molar value.

Biological target: intermediate-affinity IL-2 receptor (Homo sapiens) (UniProt P14784)
UniProt P14784, sequence (P14784 27-240, chain 1 of 2): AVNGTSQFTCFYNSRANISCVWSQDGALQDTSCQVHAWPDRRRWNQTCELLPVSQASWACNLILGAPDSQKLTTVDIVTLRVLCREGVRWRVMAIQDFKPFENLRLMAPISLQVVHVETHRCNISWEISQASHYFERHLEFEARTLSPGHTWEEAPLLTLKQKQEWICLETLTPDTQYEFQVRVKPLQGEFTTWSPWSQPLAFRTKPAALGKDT
UniProt P14784, sequence (P31785 23-262, chain 2 of 2, further chain): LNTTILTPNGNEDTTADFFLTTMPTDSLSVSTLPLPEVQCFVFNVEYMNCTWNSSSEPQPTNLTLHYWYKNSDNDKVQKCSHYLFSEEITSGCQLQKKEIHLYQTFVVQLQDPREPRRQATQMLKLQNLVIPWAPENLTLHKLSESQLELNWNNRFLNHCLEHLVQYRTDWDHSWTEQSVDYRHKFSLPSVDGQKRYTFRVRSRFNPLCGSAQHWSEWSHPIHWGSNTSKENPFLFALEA

pKd: 7.40
Substance: IL-2 moiety (from UniProt P60568)
